Consider 2 molecules from article doi:10.1101/2021.05.25.445488 (bioRxiv, 2021).

The experiment concerns the target T1, GST-TULP3 full length (human, UniProt O75386-1 1-442).
T1 sequence (looked up): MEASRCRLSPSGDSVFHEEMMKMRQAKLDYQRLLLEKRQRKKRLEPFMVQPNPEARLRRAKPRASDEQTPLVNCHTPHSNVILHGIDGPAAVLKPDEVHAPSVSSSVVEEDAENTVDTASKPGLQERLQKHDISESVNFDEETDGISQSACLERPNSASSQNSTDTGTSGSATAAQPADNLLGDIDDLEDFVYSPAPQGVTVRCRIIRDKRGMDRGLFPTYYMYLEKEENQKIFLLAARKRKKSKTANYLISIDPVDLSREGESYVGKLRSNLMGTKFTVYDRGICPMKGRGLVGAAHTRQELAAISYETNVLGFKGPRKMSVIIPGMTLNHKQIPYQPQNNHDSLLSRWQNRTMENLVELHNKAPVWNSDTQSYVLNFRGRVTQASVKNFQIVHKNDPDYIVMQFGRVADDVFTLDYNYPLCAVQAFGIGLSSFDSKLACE
The experiment is described as follows: pull-down.

B1: GFP-ARL13B N-terminus (1-298 aa), insect cell purified (domain or fragment, human, UniProt Q3SXY8-1 1-298, looked up)
chain: MFSLMASCCGWFKRWREPVRKVTLLMVGLDNAGKTATAKGIQGEYPEDVAPTVGFSKINLRQGKFEVTIFDLGGGIRIRGIWKNYYAESYGVIFVVDSSDEERMEETKEAMSEMLRHPRISGKPILVLANKQDKEGALGEADVIECLSLEKLVNEHKCLCQIEPCSAISGYGKKIDKSIKKGLYWLLHVIARDFDALNERIQKETTEQRALEEQEKQERAERVRKLREERKQNEQEQAELDGTSGLAELDPEPTNPFQPIASVIIENEGKLEREKKNQKMEKDSDGCHLKHKMEHEQI
As to B1, the binding result is given as “binds”.

B2: GFP-ARL13B full length, insect cell purified (natural protein)
chain: not shown
Consider B2, for which the binding result is on record as “binds”.
